B1: PPEF2 (parent)
chain: DHSGFISLDEFRQTWKLFSSHMNI
B2: NCF4 (parent)
chain: FGPDSKSSALACTLPTLPAKVYVG

Variants of: B1
Assay: protein stability index of a GFP-peptide fusion (GPS, HEK-293T) (PSI 1-6); higher = more stable
Conditions: c terminus: a fixed tail appended
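Further: lentivirally expressed fusions sorted by FACS into six bins by GFP to DsRed ratio, PSI derived from sequencing read proportions per bin multiplied by bin number.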

Q: For DHPGFISLDEFRQTWKLFSSHMNI [S3P], which protein stability index is on record?
A: 1.91

Q: For DHGGFISLDEFRQTWKLFSSHMNI [S3G], which protein stability index is on record?
A: 1.97

Q: For DHFGFISLDEFRQTWKLFSSHMNI [S3F], which protein stability index is on record?
A: 2.23

Q: For DHAGFISLDEFRQTWKLFSSHMNI [S3A], which protein stability index is on record?
A: 1.92

Q: With DHNGFISLDEFRQTWKLFSSHMNI [S3N] as the variant, how does the protein stability index read?
A: 1.99

Q: With DHKGFISLDEFRQTWKLFSSHMNI [S3K] as the variant, how does the protein stability index read?
A: 2.47

Q: With DHLGFISLDEFRQTWKLFSSHMNI [S3L] as the variant, how does the protein stability index read?
A: 2.07

Q: Which protein stability index does the source give for DHIGFISLDEFRQTWKLFSSHMNI [S3I] here?
A: 1.84

Q: For THSGFISLDEFRQTWKLFSSHMNI [D1T], which protein stability index is on record?
A: 2.84

Q: With WHSGFISLDEFRQTWKLFSSHMNI [D1W] as the variant, how does the protein stability index read?
A: 2.08

Q: Which protein stability index does the source give for SHSGFISLDEFRQTWKLFSSHMNI [D1S] here?
A: 4.12

Q: Which protein stability index does the source give for CHSGFISLDEFRQTWKLFSSHMNI [D1C] here?
A: 2.13

Q: Which protein stability index does the source give for KHSGFISLDEFRQTWKLFSSHMNI [D1K] here?
A: 2.64

Q: With VHSGFISLDEFRQTWKLFSSHMNI [D1V] as the variant, how does the protein stability index read?
A: 2.56

Q: Which protein stability index does the source give for IHSGFISLDEFRQTWKLFSSHMNI [D1I] here?
A: 3.63

Q: With AHSGFISLDEFRQTWKLFSSHMNI [D1A] as the variant, how does the protein stability index read?
A: 1.51

Q: Which protein stability index does the source give for NHSGFISLDEFRQTWKLFSSHMNI [D1N] here?
A: 3.49

Q: For PHSGFISLDEFRQTWKLFSSHMNI [D1P], which protein stability index is on record?
A: 2.12

Q: With YHSGFISLDEFRQTWKLFSSHMNI [D1Y] as the variant, how does the protein stability index read?
A: 2.58

Q: For LHSGFISLDEFRQTWKLFSSHMNI [D1L], which protein stability index is on record?
A: 3.93

Q: Which protein stability index does the source give for HHSGFISLDEFRQTWKLFSSHMNI [D1H] here?
A: 1.38

Q: Which protein stability index does the source give for QHSGFISLDEFRQTWKLFSSHMNI [D1Q] here?
A: 2.4

Q: With MHSGFISLDEFRQTWKLFSSHMNI [D1M] as the variant, how does the protein stability index read?
A: 1.94

Q: For GHSGFISLDEFRQTWKLFSSHMNI [D1G], which protein stability index is on record?
A: 1.47

Q: For FHSGFISLDEFRQTWKLFSSHMNI [D1F], which protein stability index is on record?
A: 2.27

Q: For EHSGFISLDEFRQTWKLFSSHMNI [D1E], which protein stability index is on record?
A: 1.4

Q: For RHSGFISLDEFRQTWKLFSSHMNI [D1R], which protein stability index is on record?
A: 1.95

Variants of: B2
Assay: as above
Conditions: c terminus: a fixed tail appended

Q: With FGPDSKSSALACTLPTLPAKWYVG [V21W] as the variant, how does the protein stability index read?
A: 2.63

Q: For FGPDSKSSALACTLPTLPAKRYVG [V21R], which protein stability index is on record?
A: 3.29

Q: With FGPDSKSSALACTLPTLPAKMYVG [V21M] as the variant, how does the protein stability index read?
A: 1.8

Q: For FGPDSKSSALACTLPTLPAKSYVG [V21S], which protein stability index is on record?
A: 2.61

Q: With FGPDSKSSALACTLPTLPAKTYVG [V21T] as the variant, how does the protein stability index read?
A: 3.05

Q: Which protein stability index does the source give for FGPDSKSSALACTLPTLPAKYYVG [V21Y] here?
A: 2.1

Q: With FGPDSKSSALACTLPTLPAKQYVG [V21Q] as the variant, how does the protein stability index read?
A: 2.81

Q: For FGPDSKSSALACTLPTLPAKPYVG [V21P], which protein stability index is on record?
A: 2.73

Q: For FGPDSKSSALACTLPTLPAKNYVG [V21N], which protein stability index is on record?
A: 3.32

Q: For FGPDSKSSALACTLPTLPAKLYVG [V21L], which protein stability index is on record?
A: 1.91

Q: For FGPDSKSSALACTLPTLPAKVWVG [Y22W], which protein stability index is on record?
A: 1.67

Q: For FGPDSKSSALACTLPTLPAKVSVG [Y22S], which protein stability index is on record?
A: 3.4

Q: With FGPDSKSSALACTLPTLPAKVNVG [Y22N] as the variant, how does the protein stability index read?
A: 2.94

Q: With FGPDSKSSALACTLPTLPAKVTVG [Y22T] as the variant, how does the protein stability index read?
A: 2.93

Q: Which protein stability index does the source give for FGPDSKSSALACTLPTLPAKVPVG [Y22P] here?
A: 2.96

Q: For FGPDSKSSALACTLPTLPAKVDVG [Y22D], which protein stability index is on record?
A: 2.83

Q: For FGPDSKSSALACTLPTLPAKVQVG [Y22Q], which protein stability index is on record?
A: 3.12

Q: For FGPDSKSSALACTLPTLPAKVKVG [Y22K], which protein stability index is on record?
A: 2.95

Q: With FGPDSKSSALACTLPTLPAKVAVG [Y22A] as the variant, how does the protein stability index read?
A: 2.71

Q: With FGPDSKSSALACTLPTLPAKVVVG [Y22V] as the variant, how does the protein stability index read?
A: 2.37

Q: With FGPDSKSSALACTLPTLPAKVIVG [Y22I] as the variant, how does the protein stability index read?
A: 2.36

Q: With FGPDSKSSALACTLPTLPAKVCVG [Y22C] as the variant, how does the protein stability index read?
A: 2.63

Q: Which protein stability index does the source give for FGPDSKSSALACTLPTLPAKVFVG [Y22F] here?
A: 2.67

Q: For FGPDSKSSALACTLPTLPAKVHVG [Y22H], which protein stability index is on record?
A: 2.87

Q: Which protein stability index does the source give for FGPDSKSSALACTLPTLPAKVLVG [Y22L] here?
A: 2.12

Q: For FGPDSKSSALACTLPTLPAKVEVG [Y22E], which protein stability index is on record?
A: 2.85

Q: With FGPDSKSSALACTLPTLPAKVRVG [Y22R] as the variant, how does the protein stability index read?
A: 3.24

Q: Which protein stability index does the source give for FGPDSKSSALACTLPTLPAKVGVG [Y22G] here?
A: 3.11

Q: With FGPDSKSSALACTLPTLPAKVMVG [Y22M] as the variant, how does the protein stability index read?
A: 2.7

Q: With FGPDSKSSALACTLPTLPAKVYSG [V23S] as the variant, how does the protein stability index read?
A: 2.62

Q: With FGPDSKSSALACTLPTLPAKVYLG [V23L] as the variant, how does the protein stability index read?
A: 2.67

Q: For FGPDSKSSALACTLPTLPAKVYPG [V23P], which protein stability index is on record?
A: 2.77

Q: Which protein stability index does the source give for FGPDSKSSALACTLPTLPAKVYNG [V23N] here?
A: 3.2

Q: Which protein stability index does the source give for FGPDSKSSALACTLPTLPAKVYKG [V23K] here?
A: 2.86

Q: With FGPDSKSSALACTLPTLPAKVYWG [V23W] as the variant, how does the protein stability index read?
A: 2.07

Q: With FGPDSKSSALACTLPTLPAKVYHG [V23H] as the variant, how does the protein stability index read?
A: 3.06

Q: For FGPDSKSSALACTLPTLPAKVYCG [V23C], which protein stability index is on record?
A: 2.72

Q: For FGPDSKSSALACTLPTLPAKVYQG [V23Q], which protein stability index is on record?
A: 2.36

Q: With FGPDSKSSALACTLPTLPAKVYDG [V23D] as the variant, how does the protein stability index read?
A: 3.21

Q: Which protein stability index does the source give for FGPDSKSSALACTLPTLPAKVYYG [V23Y] here?
A: 2.39

Q: Which protein stability index does the source give for FGPDSKSSALACTLPTLPAKVYGG [V23G] here?
A: 2.66

Q: Which protein stability index does the source give for FGPDSKSSALACTLPTLPAKVYTG [V23T] here?
A: 2.96

Q: Which protein stability index does the source give for FGPDSKSSALACTLPTLPAKVYMG [V23M] here?
A: 2.34

Q: For FGPDSKSSALACTLPTLPAKVYEG [V23E], which protein stability index is on record?
A: 2.81

Q: With FGPDSKSSALACTLPTLPAKVYIG [V23I] as the variant, how does the protein stability index read?
A: 2.29

Q: With FGPDSKSSALACTLPTLPAKVYFG [V23F] as the variant, how does the protein stability index read?
A: 1.78

Q: Which protein stability index does the source give for FGPDSKSSALACTLPTLPAKVYAG [V23A] here?
A: 2.29

Q: For FGPDSKSSALACTLPTLPAKVYRG [V23R], which protein stability index is on record?
A: 2.81

Q: For FGPDSKSSALACTLPTLPAKVYVE [G24E], which protein stability index is on record?
A: 2.55

Q: Which protein stability index does the source give for FGPDSKSSALACTLPTLPAKVYVK [G24K] here?
A: 2.88

Q: For FGPDSKSSALACTLPTLPAKVYVY [G24Y], which protein stability index is on record?
A: 1.75

Q: Which protein stability index does the source give for FGPDSKSSALACTLPTLPAKVYVC [G24C] here?
A: 1.65

Q: With FGPDSKSSALACTLPTLPAKVYVP [G24P] as the variant, how does the protein stability index read?
A: 1.68

Q: For FGPDSKSSALACTLPTLPAKVYVH [G24H], which protein stability index is on record?
A: 2.08

Q: With FGPDSKSSALACTLPTLPAKVYVV [G24V] as the variant, how does the protein stability index read?
A: 1.84

Q: Which protein stability index does the source give for FGPDSKSSALACTLPTLPAKVYVQ [G24Q] here?
A: 2.22

Q: For FGPDSKSSALACTLPTLPAKVYVN [G24N], which protein stability index is on record?
A: 1.85

Q: For FGPDSKSSALACTLPTLPAKVYVW [G24W], which protein stability index is on record?
A: 2.29

Q: Which protein stability index does the source give for FGPDSKSSALACTLPTLPAKVYVM [G24M] here?
A: 1.63

Q: With FGPDSKSSALACTLPTLPAKVYVT [G24T] as the variant, how does the protein stability index read?
A: 1.9

Q: Which protein stability index does the source give for FGPDSKSSALACTLPTLPAKVYVR [G24R] here?
A: 2.29

Q: For FGPDSKSSALACTLPTLPAKVYVD [G24D], which protein stability index is on record?
A: 3.36

Q: For FGPDSKSSALACTLPTLPAKVYVL [G24L], which protein stability index is on record?
A: 2.56

Q: For FGPDSKSSALACTLPTLPAKVYVA [G24A], which protein stability index is on record?
A: 1.83

Q: With FGPDSKSSALACTLPTLPAKVYVI [G24I] as the variant, how does the protein stability index read?
A: 1.74

Q: Which protein stability index does the source give for FGPDSKSSALACTLPTLPAKVYVF [G24F] here?
A: 2.92

Q: For FGPDSKSSALACTLPTLPAKVYVS [G24S], which protein stability index is on record?
A: 1.97

Reference: the supplement of paper PMC10567573
